Where two headings read alike, the source gives them in different places.
What was measured:
[1] = target: T1, H3 Hong Kong/8/68 HA trimer (influenza A virus H3 Hong Kong/8/68); assay: kinetic binding to HA trimer (instrument not stated)
T1 construct: Trimeric HA

[2] = target: T2, hemagglutinin (HA) of influenza B virus B/Florida (Yamagata lineage) (influenza B virus B/Florida/06 …); assay: recombinant HA ELISA (AttoPhos fluorescence, mean of triplicates)
[3] = target: recombinant HA of influenza B virus B/Wisconsin/10 (Yamagata clade) (influenza B virus B/Wisconsin/10 …); assay: as above
[4] = target: T3, hemagglutinin (HA) of influenza B virus B/Malaysia (Victoria lineage) (influenza B virus B/Malaysia/04 …); assay: as above
[5] = target: recombinant HA of influenza B virus B/Mass/12 (Yamagata clade) (influenza B virus B/Mass/12 (Yamagata …)); assay: as above
[6] = target: recombinant HA of influenza B virus B/Brisbane/08 (Victoria clade) (influenza B virus B/Brisbane/08 …); assay: as above
[7] = target: hemagglutinin of influenza A virus A/Udorn/307/1976, on virus (influenza A virus A/Udorn/307/1976); assay: cell-based or functional assay
[8] = target: hemagglutinin of influenza A virus A/Philippines/2/82 x-79, on virus (influenza A virus A/Philippines/2/82 …); assay: cell-based or functional assay
[9] = target: hemagglutinin of influenza A virus A/Bufflehead (H4), on virus (influenza A virus H4 A/Bufflehead); assay: cell-based or functional assay
[10] = target: hemagglutinin of influenza A virus A/Netherlands/219/03, on virus (influenza A virus A/Netherlands/219/03); assay: cell-based or functional assay
[11] = target: hemagglutinin of influenza A virus A/SW/MN/02719, on virus (influenza A virus A/SW/MN/02719); assay: cell-based or functional assay
[12] = target: hemagglutinin of influenza A virus A/Perth/16/2009 (H3), on virus (influenza A virus H3 A/Perth/16/2009); assay: cell-based or functional assay
[13] = target: hemagglutinin of influenza A virus A/New York/55/2004, on virus (influenza A virus A/New York/55/2004); assay: cell-based or functional assay
[14] = target: hemagglutinin of influenza A virus A/Canada/rv444/04 (H7), on virus (influenza A virus H7 A/Canada/rv444/04); assay: cell-based or functional assay
[15] = target: hemagglutinin of influenza A virus A/Northern Shoveler (H10), on virus (influenza A virus H10 A/Northern …); assay: cell-based or functional assay
[16] = target: hemagglutinin of influenza A virus A/HongKong/68, on virus (influenza A virus A/HongKong/68); assay: cell-based or functional assay
[17] = target: hemagglutinin of influenza A virus A/Wisconsin/67/2005, on virus (influenza A virus A/Wisconsin/67/2005); assay: cell-based or functional assay
[18] = target: T2, hemagglutinin (HA) of influenza B virus …
[19] = target: T3, hemagglutinin (HA) of influenza B virus …
[20] = target: T3, hemagglutinin (HA) of influenza B virus …; assay: affinity determination (method not stated there; data not shown)

B1: TRL579 (antibody, V domains shown)
VH: QVQLVQSGAEVKKPGASVKVSCKTSGYTFTAYTIHWVRQAPGQRLEWMGWINAGNGHTKYSQRFKGRVTITRDTSARTTYMELRSLTSEDTALYFCARGPETYYYDKTNWLNSHPDEYFQHWGHGTQVTVSS
VL: DIQMTQSPSTLSASVGDRVTITCRASQTINNYLAWYQQKPGKAPKLLIYKASSLESGVPSRFSGSGSGTEFTLTISSLQPDDFATYYCQEYNNDSPLTFGGGTKVEIKR
[1]
  Kd: 0.2 nM
  koff: 5.8e-05 s⁻¹
  kon: 250000 M⁻¹ s⁻¹
[2]
  fold reactivity over background: 1 fold over background
[3]
  fold reactivity over background: 1 fold over background
[4]
  fold reactivity over background: 1.1 fold over background
[5]
  fold reactivity over background: 3.2 fold over background
[6]
  fold reactivity over background: 1 fold over background
[7]
  IC50 (ug/ml), MDCK monolayer microneutralization assay: 1.9 µg/mL
[8]
  IC50 (ug/ml), MDCK monolayer microneutralization assay: 0.9 µg/mL
[9]
  IC50 (ug/ml), MDCK monolayer microneutralization assay: 15.5 µg/mL
[10]
  IC50 (ug/ml), MDCK monolayer microneutralization assay: 0.6 µg/mL
[11]
  IC50 (ug/ml), MDCK monolayer microneutralization assay: 3.9 µg/mL
[12]
  IC50 (ug/ml), MDCK monolayer microneutralization assay: 0.2 µg/mL
[13]
  IC50 (ug/ml), MDCK monolayer microneutralization assay: 1.1 µg/mL
[14]
  IC50 (ug/ml), MDCK monolayer microneutralization assay: 1.6 µg/mL
[15]
  IC50 (ug/ml), MDCK monolayer microneutralization assay: 0.8 µg/mL
[16]
  IC50 (ug/ml), MDCK monolayer microneutralization assay: 2.8 µg/mL
[17]
  IC50 (ug/ml), MDCK monolayer microneutralization assay: 1 µg/mL

B2: TRL846 (antibody, V domains shown)
VH: QVQLVESGGGLVQPGGSLRLSCTVSGFTFNSYAMNWVRQAPGKGLEWVSGIRGSGENTYYAETVKGRFTISRDNSKNTLYLEMNSLRAEDTAVYYCARKWGRMTVFGVATDQLYYFDYWGQGTLVTVSS
VL: DITLTQSPATLSVSPGERATLSCRASQSVSSNLAWYQQKPGQAPRLLIYGASNRATDIPARFSGSGSGTEFTLTISSLQSEDFAVYYCQQFNDWPFLTFGGGTKVEIKR
[2]
  fold reactivity over background: 25.6 fold over background
[3]
  fold reactivity over background: 25.6 fold over background
[4]
  fold reactivity over background: 25.6 fold over background
[5]
  fold reactivity over background: 25.6 fold over background
[6]
  fold reactivity over background: 25.6 fold over background
[18]
  Kd: 0.85 nM
[19]
  Kd: < 1 nM

B3: TRL854 (antibody, V domains shown)
VH: QVQLVESGAEVKKPGASVRVSCKGSGYTFTAYHMHWVRQAPGQGFEWVGWINPNSGATYYTSTFEGRVTMTRDTSITTAYMELSSLRSDDTAVYYCATDIVVERDASLGGFNSYGMDVWGQGTTVTVSS
VL: DIEMTQSPLSLPVTPGEPASISCRSSQSLLHSNGYNHLAWYLQKPGRSPHLLIYLASTRASGVPDRFSGSGSGTDFTLKISRVEAEDVGIYYCMQSLQTSITFGQGTRLEIKR
[2]
  fold reactivity over background: 25.6 fold over background
[3]
  fold reactivity over background: 25.6 fold over background
[4]
  fold reactivity over background: 25.6 fold over background
[5]
  fold reactivity over background: 25.6 fold over background
[6]
  fold reactivity over background: 25.6 fold over background
[18]
  Kd: 8.8 nM
[20]
  Kd: < 1 nM

Reference: patent US20170189529A1 (CONTRAFECT, published 2017)
